Measurements as given in the RNAGym collection of RNA variant scans (doi:10.7554/elife.80360).

B1: Hammerhead Ribozyme (parent)
chain: ACCGGAUGUGCUUUCCGGUCUGAUGAGUCCGUGAGGACGAAACAG

Variants of: B1
Test: self-cleavage, relative activity (ratio to wild type); higher = more cleavage; co-transcriptional

**Q.** Which self-cleavage does the source give for ACCGGAUGCGCUUUCCGGUCGGAUGAGUCCGUGAGGACGAAACAG [U9C U21G] here?
**A.** 0.72

**Q.** For ACCGGAUGUCCUUUCCGGUCUGAUGAGUCCGUGAGGACGAAGCAG [G10C A42G], which self-cleavage is on record?
**A.** 0.278

**Q.** Which self-cleavage does the source give for ACCGAAUGUGCUUUCCGGUCUGAUGAGGCCGUGAGGACGAAACAG [G5A U28G] here?
**A.** 0.377

**Q.** Which self-cleavage does the source give for ACCGGAUGAGCUUUCCGGUCUCAUGAGUCCGUGAGGACGAAACAG [U9A G22C] here?
**A.** 0.359

**Q.** Which self-cleavage does the source give for ACCGGAUGUGCUUUCCGGUCUGAUGAGUGUGUGAGGACGAAACAG [C29G C30U] here?
**A.** 0.693

**Q.** For ACCGGAUGCGCUUUCCGGUCUCAUGAGUCCGUGAGGACGAAACAG [U9C G22C], which self-cleavage is on record?
**A.** 0.266

**Q.** For ACCGGAUGUGCAUUCCGGUCUGAUGAGUCCGUGAGGACAAAACAG [U12A G39A], which self-cleavage is on record?
**A.** 0.257

**Q.** With ACCGGAUGUGCUUUCUGGUCUGAUGAGUCCGUGAGGACGACACAG [C16U A41C] as the variant, how does the self-cleavage read?
**A.** 0.301

**Q.** With ACCGGAUGUGCUUUCCGGUCUGAUGAGUCAGCGAGGACGAAACAG [C30A U32C] as the variant, how does the self-cleavage read?
**A.** 0.879

**Q.** With ACCGGAUGUGCUUUCCGGUCUGGUGAGUCCGUGAGGACAAAACAG [A23G G39A] as the variant, how does the self-cleavage read?
**A.** 0.301

**Q.** Which self-cleavage does the source give for AACGGAUGUGCUUUCCGGUCUGAUAAGUCCGUGAGGACGAAACAG [C2A G25A] here?
**A.** 0.31

**Q.** With ACCGGAUGUGCUUUGCGGUCUGAAGAGUCCGUGAGGACGAAACAG [C15G U24A] as the variant, how does the self-cleavage read?
**A.** 0.717

**Q.** Which self-cleavage does the source give for ACCGGAUGUGCUUUCCGGUCUGAUCAGUCCGUGAGGACGAAACAC [G25C G45C] here?
**A.** 0.378

**Q.** Which self-cleavage does the source give for ACCGGAUGUGCUUUCCGGUCUGAUGAGUCCAUGAGGACGAACCAG [G31A A42C] here?
**A.** 0.38

**Q.** Which self-cleavage does the source give for ACCUGAUGUGCUUUCUGGUCUGAUGAGUCCGUGAGGACGAAACAG [G4U C16U] here?
**A.** 1.05

**Q.** For ACCGGAUGUGCUUUCCUGUCUGAUGAGUCCGUGAGGACAAAACAG [G17U G39A], which self-cleavage is on record?
**A.** 0.328

**Q.** Which self-cleavage does the source give for ACCGGAUGUGCUUUCGGGUCUGAUGAGUCCGUGAGGACGAACCAG [C16G A42C] here?
**A.** 0.334

**Q.** Which self-cleavage does the source give for ACCGGAUGUGCAUACCGGUCUGAUGAGUCCGUGAGGACGAAACAG [U12A U14A] here?
**A.** 0.798

**Q.** Which self-cleavage does the source give for ACGGGAUGUGCUGUCCGGUCUGAUGAGUCCGUGAGGACGAAACAG [C3G U13G] here?
**A.** 0.628

**Q.** Which self-cleavage does the source give for ACCGGAUGUGCUUUCCAGUCUGAUGAGUCCGAGAGGACGAAACAG [G17A U32A] here?
**A.** 0.62

**Q.** With UCCGGAUGUGCUUUCCAGUCUGAUGAGUCCGUGAGGACGAAACAG [A1U G17A] as the variant, how does the self-cleavage read?
**A.** 0.421

**Q.** For AGCGGAUGUGCUUUCCGGUCUGAGGAGUCCGUGAGGACGAAACAG [C2G U24G], which self-cleavage is on record?
**A.** 0.356

**Q.** Which self-cleavage does the source give for ACCCGAUGUGCUUUCCGGUCUGAUGAGUACGUGAGGACGAAACAG [G4C C29A] here?
**A.** 0.317

**Q.** For ACCGGAUGUGAUUUCCGCUCUGAUGAGUCCGUGAGGACGAAACAG [C11A G18C], which self-cleavage is on record?
**A.** 0.586

**Q.** For ACCGGAUGUGCUUUGCGGUAUGAUGAGUCCGUGAGGACGAAACAG [C15G C20A], which self-cleavage is on record?
**A.** 0.361

**Q.** Which self-cleavage does the source give for ACCGGAUGUGCUUUCCGGUCGGAUGAGUCCGUGAGAACGAAACAG [U21G G36A] here?
**A.** 0.382

**Q.** For ACCGGAUGUGCUUUCCGGUCUGAUGAUUCCGUGAGAACGAAACAG [G27U G36A], which self-cleavage is on record?
**A.** 0.303

**Q.** Which self-cleavage does the source give for ACCGGAUGUGCUUUCCGGUCUGAUGAGUCCGUGAGCACGACACAG [G36C A41C] here?
**A.** 0.364

**Q.** Which self-cleavage does the source give for ACAGGAUGUGCUUUCUGGUCUGAUGAGUCCGUGAGGACGAAACAG [C3A C16U] here?
**A.** 0.557

**Q.** For ACCGGCUGUGCUUUCCGGUCUGAUGAGUCCGUGAGAACGAAACAG [A6C G36A], which self-cleavage is on record?
**A.** 0.391

**Q.** For ACCGGAUGUGCUUUCCGGUCUGAUGAGUCCGUAAGGACGAUACAG [G33A A41U], which self-cleavage is on record?
**A.** 0.428

**Q.** For ACCGGAUGGGCUUUCCGCUCUGAUGAGUCCGUGAGGACGAAACAG [U9G G18C], which self-cleavage is on record?
**A.** 0.364

**Q.** Which self-cleavage does the source give for ACCGGGUGUGCUUUCCGGUCUGAUGAGUCCGCGAGGACGAAACAG [A6G U32C] here?
**A.** 0.931

**Q.** For ACCGGAUGUGCUUUCCGGUCUGAUGAGUCCGUGAGGACAACACAG [G39A A41C], which self-cleavage is on record?
**A.** 0.341

**Q.** With ACCGGAUGUGCUUUCCGGUCCGAUGAGUCCGUGAGGACGAAAGAG [U21C C43G] as the variant, how does the self-cleavage read?
**A.** 0.415

**Q.** With ACCGGAUGUGCUUUCCGGCAUGAUGAGUCCGUGAGGACGAAACAG [U19C C20A] as the variant, how does the self-cleavage read?
**A.** 0.329

**Q.** Which self-cleavage does the source give for ACCGGAUGUGCUUUCCGGUCUUAUGAGGCCGUGAGGACGAAACAG [G22U U28G] here?
**A.** 0.294

**Q.** With ACCGGAUGUGCUUUCCGGUCUGAUGACUCCGUGAGGAAGAAACAG [G27C C38A] as the variant, how does the self-cleavage read?
**A.** 0.863

**Q.** For ACCGGAUGUGCUUUCCGGUCUGAUGAGUCCGUGAGGACGAAAAGG [C43A A44G], which self-cleavage is on record?
**A.** 0.304

**Q.** For ACCGGAUGUGCUUUCCGGUCUGAUGAGACCGUGACGACGAAACAG [U28A G35C], which self-cleavage is on record?
**A.** 0.435

**Q.** Which self-cleavage does the source give for ACCGGAUGUGCUUUCCGGUCUGAUGAGUCCGUGAGAACGAAACAC [G36A G45C] here?
**A.** 0.422

**Q.** With ACCCGAUGUGCUAUCCGGUCUGAUGAGUCCGUGAGGACGAAACAG [G4C U13A] as the variant, how does the self-cleavage read?
**A.** 1.04

**Q.** With ACCGGAUGUGCUUUCAGGUCUGAUGAGUCCGUGACGACGAAACAG [C16A G35C] as the variant, how does the self-cleavage read?
**A.** 0.573

**Q.** Which self-cleavage does the source give for ACCGAAUGUGCUUUCCGGUCUGAUGAGUCCGUGAGGACGAAACCG [G5A A44C] here?
**A.** 0.662

**Q.** Which self-cleavage does the source give for ACCGGAUGGGCUUUCCGGUCUGAUGAGUCCGUGAGGACGACACAG [U9G A41C] here?
**A.** 0.294

**Q.** Which self-cleavage does the source give for ACCGGAUGUGCUUUCAGGUCUGAUGAGUCCGUGAGCACGAAACAG [C16A G36C] here?
**A.** 0.38

**Q.** With ACGGGAUGUGCUUUCCGGUCUGAUGCGUCCGUGAGGACGAAACAG [C3G A26C] as the variant, how does the self-cleavage read?
**A.** 0.268

**Q.** Which self-cleavage does the source give for ACCGGAUGUGCUUUCCGGUCUGAUGAUUCCGUUAGGACGAAACAG [G27U G33U] here?
**A.** 0.535

**Q.** For ACCGCAUGUGCUUUCCGGUCUGCUGAGUCCGUGAGGACGAAACAG [G5C A23C], which self-cleavage is on record?
**A.** 0.326

**Q.** With UCCGGAUGUGCUUUCCGGUCUCAUGAGUCCGUGAGGACGAAACAG [A1U G22C] as the variant, how does the self-cleavage read?
**A.** 0.22

**Q.** With ACCGGACGUGCUUUCCGGUCUGAUGAGUCCGUGAGGACAAAACAG [U7C G39A] as the variant, how does the self-cleavage read?
**A.** 0.469

**Q.** With ACCGGAUGUCCUUUCCGGUCUGAUGAGCCCGUGAGGACGAAACAG [G10C U28C] as the variant, how does the self-cleavage read?
**A.** 1.01

**Q.** Which self-cleavage does the source give for ACCGGAUGUGCUUUCCGGUCAGAUGAGUCCGUGAGGACCAAACAG [U21A G39C] here?
**A.** 0.32

**Q.** Which self-cleavage does the source give for ACCGGUUGUGCUUGCCGGUCUGAUGAGUCCGUGAGGACGAAACAG [A6U U14G] here?
**A.** 0.624

**Q.** For ACCGGAUGUGCUUUCCUGUCUUAUGAGUCCGUGAGGACGAAACAG [G17U G22U], which self-cleavage is on record?
**A.** 0.359

**Q.** Which self-cleavage does the source give for GCCGGAUGUGCUUUCCGGUCUGAUGAGUCCGUGAGGACGAAACAA [A1G G45A] here?
**A.** 1.11

**Q.** Which self-cleavage does the source give for ACCGGACGUGCUUUCCGGUCUGAUGAGUCCGUGAAGACGAAACAG [U7C G35A] here?
**A.** 0.732
